Measured values from article PMC6310132 (The Biochemical journal, 2016).

Biological target: N-ethylmaleimide-sensitive factor (NSF), pRSET-A fusion protein (mouse, UniProt P46460 1-744)
Assay: SPR

N-ethylmaleimide-sensitive factor (NSF), pRSET-A fusion protein, sequence (P46460 whole entry, the tested form may be a part): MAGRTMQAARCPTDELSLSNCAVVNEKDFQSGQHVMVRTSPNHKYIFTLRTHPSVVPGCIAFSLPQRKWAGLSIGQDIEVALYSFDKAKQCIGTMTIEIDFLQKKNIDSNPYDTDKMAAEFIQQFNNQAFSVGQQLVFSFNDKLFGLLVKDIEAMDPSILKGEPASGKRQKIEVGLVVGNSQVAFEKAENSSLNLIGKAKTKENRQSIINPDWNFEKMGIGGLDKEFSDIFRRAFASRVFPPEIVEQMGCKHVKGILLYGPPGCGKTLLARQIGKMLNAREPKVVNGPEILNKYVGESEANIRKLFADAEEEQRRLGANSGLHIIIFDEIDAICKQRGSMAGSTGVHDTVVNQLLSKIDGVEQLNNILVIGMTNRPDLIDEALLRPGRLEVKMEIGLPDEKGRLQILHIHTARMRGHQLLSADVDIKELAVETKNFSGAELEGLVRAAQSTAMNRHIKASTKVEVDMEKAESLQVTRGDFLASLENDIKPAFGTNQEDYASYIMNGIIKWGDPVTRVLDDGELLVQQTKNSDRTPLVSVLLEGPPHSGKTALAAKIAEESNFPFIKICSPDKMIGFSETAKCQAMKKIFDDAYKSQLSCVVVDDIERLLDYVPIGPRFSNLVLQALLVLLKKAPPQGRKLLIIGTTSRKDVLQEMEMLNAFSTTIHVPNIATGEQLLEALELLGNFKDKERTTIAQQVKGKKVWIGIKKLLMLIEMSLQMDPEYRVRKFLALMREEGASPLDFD

Kd: 0.0121 µM
koff: 0.00274 s⁻¹
kon: 227000 M⁻¹ s⁻¹
B1: rat organ of Corti dopamine D1A carboxy terminus, pRSET-A fusion protein (domain or fragment, UniProt P18901 338-425, looked up)
chain: QKAFSTLLGCYRLCPTTNNAIETVSINNNGAVVFSSHHEPRGSISKDCNLVYLIPHAVGSSEDLKKEEAGGIAKPLEKLSPALSVILD
